In the supplement of paper PMC9170038:

Legend:
MS2 coat protein [1] = assay: apparent KD of MS2 coat protein, switch OFF state (with FMN for OFF switches, without FMN for ON switches); designed switch direction (-1 OFF switch, 1 ON switch): -1; higher = weaker reporter binding; conditions: FMN input: 0 or 200 uM; Eterna round: R93 (includes R88 designs)
Method in brief: (§1)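 Binding of SNAP-549-labelled MS2 coat protein was measured on designed RNA switches transcribed on-chip from Illumina sequencing clusters. The protein rose in twofold steps from 0.7 or 1.5 nM to 3 µM, with 0.8–1.5 h per step early on and 10–20 min per step later, in 100 mM Tris-HCl pH 7.5, 80 mM KCl, 4 mM MgCl2, without or with constant ligand. Each design's apparent KD is the median of fits to its normalised cluster binding curves.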

MS2 coat protein [2] = assay: apparent KD of MS2 coat protein, switch ON state; designed switch direction (-1 OFF switch, 1 ON switch): -1; higher = weaker reporter binding; conditions: FMN input: 0 or 200 uM; Eterna round: R93 (includes R88 designs)
Method in brief: as §1

| Sequence | apparent KD of MS2 coat protein (MS2 coat protein [1]) | apparent KD of MS2 coat protein (MS2 coat protein [2]) |
| --- | --- | --- |
| AGUCAUACAGGAUAUACAUGAGGAUCACCCAUGUAAAUCCUAAAAAGGUGAUCCUCAUGUAGAAGGGUAUGACA [EX3 219: Super Stable 19] | 17.7 nM | 21.8 nM |
| AGUCAUACAGGAUAUACAUGAGGAUCACCCAUGUAUAUCCAAAAAAAAAAAAAAACAUGUAGAAGGGUAUGACA [EX3 207: Super Stable 7] | 7.41 nM | 10.8 nM |
| AGUCAUACAGGAUAUACAUGAGGAUCACCCAUGUAUAUCCAAAAAAAGUGAUCCUCAUGUAGAAGGGUAUGACA [EX3 203: Super Stable 3] | 8.92 nM | 12 nM |
| AGUCAUACAGGAUAUACAUGAGGAUCACCCAUGUUUAUCCUAAAAUAAAAAAAAACAUGUAGAAGGGUAUGACA [EX3 215: Super Stable 15] | 14.1 nM | 15.1 nM |
| AGUCGGCGAGGAUAUACAUGAGGAUCACCCAUGUGAGAGAAAAAAGUGAGCAAGAAAAGUAGAAGGCGCUGACA [JL Lego Mod 2] | 154 nM | 54.2 nM |
| AGUCGGCGAGGAUAUACAUGAGGAUCACCCAUGUGAGAGAUAAAAGUGAGUUAGACAAGUAGAAGGCGCUGACA [JL Lego Mod 9] | 480 nM | 44.3 nM |
| AGUCUGAGAGGAUAUACAUGGAAAAAAAAAGUAAGAUCCCUACAUGAGGAUCACCCAUGUAGAAGGCUCUGACA [Ex2 Design 144: Sub-opt 8] | 22.7 nM | 41.7 nM |
| AGUUGGCGAGGAUAUACAUGAGGAUCACCCAUGUAAAAUAAAUAAAAAAUAGGGAAAAGUAGAAGGCGCUGACA [73%, Moding Norbert Elias, 13] | 96.3 nM | 48.4 nM |
| AGUUGGCGAGGAUAUACAUGAGGAUCACCCAUGUGAGAGAAAAAAAAGAGAAAAAAAAGUAGAAGGCGCUGACA [Mat - Exclusion 3 - Lego mod - D42] | 130 nM | 42.6 nM |
| AGUUGGCGAGGAUAUACAUGAGGAUCACCCAUGUGAGAGAAAAAAGUGAGAAAGAAAAGUAGAAGGCGCUGACC [salish99-ex3-07] | 103 nM | 58.3 nM |
| AGUUGGCGAGGAUAUACAUGAGGAUCACCCAUGUGAGAGAAAAAAGUGGAAAAGAAAAGUAGAAGGCGCUGACA [Mat - Exclusion 3 - Lego mod - D90] | 119 nM | 39.4 nM |
| AUAAAACAUGAGGAUCACCCAUGUCAGGAUAUACGAUAUUAAAUUUAAUAUAUUUAUAGUAGAAGGGACAAAUA [High Five] | 37.1 nM | 31.6 nM |
| AUAAAACAUGAGGAUCACCCAUGUGAGGAUAUCCAAAAAGAAAGAAAAAAAAAAAAAAGGAGAAGGCACAAUAA [Amethyst 46] | 46.7 nM | 67.6 nM |
| AUAAAACAUGAGGAUCACCCAUGUGAGGAUAUGCGAAACAAACAAACAAACAAACAAAGCAGAAGGCACAAUAA [Amethyst 9] | 24.6 nM | 22.6 nM |
| AUAAAACAUGAGGAUCACCCAUGUGAGGAUAUGCGAAAGAAAGAAAGAAAGAAAGAAAGCAGAAGGCACAAUAA [Amethyst 42] | 32.6 nM | 30.1 nM |
| AUAAACGGAGGAUAUACAUGAGGAUCACCCAUGUAAAUAAAUAAAAGUUCCUCAAUAAGUAGAAGGUCGAAUAA [JR_Exc003_Sub011] | 13 nM | 12.8 nM |
| AUAAAGCGAGGAUAUACAUGAGGAUCACCCAUGUAAAUAAAUAGGAGAGCCACAAUAAGUAGAAGGUGUAAUAA [JR_Exc003_Sub009] | 73.3 nM | 62.6 nM |
| AUAAAGUCAGGAUAUGUAAGAAUAACGAAAGUUAUAAAGAAACAGAAGGGACAUGAGGAUCACCCAUGUAAAAU [Ex 4 #3] | 31 nM | 43.1 nM |
| AUAAAGUGAGGAUAUACAUGAGGAUCACCCAUGUGAAAGUCUAAAAAAAUGACAAAAAGUAGAAGGCACAAAUA [Mai Tai2 ala mod Fisker] | 23.5 nM | 18.8 nM |
| AUAAGUCGAGGAUAUACGAAAAGCUAGCGAAAGCUAGCGGGACAUGAGGAUCACCCAUGUAGAAGGCGACAAUA [Tetraloop hairpin BlockHead... 61% 5] | 57 nM | 28.4 nM |
| AUAAGUGCAGGAUAUACGAAAAGCUAGCGAAAGCUAGCGGGACAUGAGGAUCACCCAUGUAGAAGGGCACAAUA [Tetraloop hairpin BlockHead... 61% 6] | 50.3 nM | 25 nM |
| AUAAUGUGAGGAUAUACAUGAGGAUCACCCAUGUAAUUAAAAAGGAGAGACACAAUUCGUAGAAGGUACAUUUA [JR_Exc003_Sub509] | 26.3 nM | 23.4 nM |
| AUAAUGUGAGGAUAUACAUGAGGAUCACCCAUGUAAUUAAAUAGGAGAGACACAAUUCGUAGAAGGUACAUUUA [JR_Exc003_Sub508] | 27.7 nM | 29.4 nM |

| Sequence | apparent KD of MS2 coat protein (MS2 coat protein [1]) | apparent KD of MS2 coat protein (MS2 coat protein [2]) |
| --- | --- | --- |
| AUAGGCCUAGGAUAUACAUGAGGAUCACCCAUGUAAAUAAAUCGAUCAUGAUAAACGUGUAGAAGGAGGAAUAA [JR_Exc003_Sub206] | 39.5 nM | 28.8 nM |
| AUAGGCCUAGGAUAUACAUGAGGAUCACCCAUGUUAACACUGCAAUCAAGUUAAUAUUGUAGAAGGAGGAAUAA [JR_Exc003_Sub310] | 26.1 nM | 26.3 nM |
| AUAGGCCUAGGAUAUACAUGAGGAUCACCCAUGUUAAUACUUCAAUCAAGAUAAAAGUGUAGAAGGAGGAAUAA [JR_Exc003_Sub306] | 30.9 nM | 26.7 nM |
| AUAGUACAUGAGGAUCACCCAUGUCAGGAUAUCGGAUAUGACAUGAAAAAAAUGUUAACGAGAAGGGACUAUAA [EX1 Malc#18] | 49.8 nM | 44.3 nM |
| AUAGUACAUGAGGAUCACCCAUGUCAGGAUAUCGGAUGUGACAUGAAAAAAAUGUUAGUGAGAAGGGACUAUAA [EX1 Malc#18 Mod 3 - Jieux - Exclusion 1] | 111 nM | 66.9 nM |
| AUCAUGUUAGGAUAUACAAGAAAAGAAAAGAAAGAAAAGAAGUAGAAGGAACAUGAGGAUCACCCAUGUAAGAA [EteRNA is fun!] | 32.3 nM | 23.6 nM |
| AUCAUGUUAGGAUAUUUAAGAAAAGAAAAGAAAGAAAAGAAAAAGAAGGAACAUGAGGAUCACCCAUGUAAGAA [EteRNA is fun!] | 22 nM | 27.5 nM |
| AUCUACCUAGGAUAUACAUGAGGAUCACCCAUGUACAGAUACAACAAGGGAAACACACGUAGAAGGAGGAAGAU [JR_Exc003_Sub1206] | 60.8 nM | 25.8 nM |
| AUCUAGUCAGGAUAUGACUACAUAAAAAAAAAAAAAUGUAGUCAGAAGGGACAUGAGGAUCACCCAUGUACUAA [HSL_Exclusion 4 64% 1] | 24.8 nM | 37.3 nM |
| AUCUAGUGAGGAUAUCGUACAAUAUGGAAAACAUAGAGGUACGAGAAGGCACAUGAGGAUCACCCAUGUAAAAC [May 100] | 36.5 nM | 26.8 nM |
| AUCUUGUCAGGAUAUCGUACAAUAUGGAAAACAUAGAGGUACGAGAAGGGACAUGAGGAUCACCCAUGUAAAAC [May 98] | 73.7 nM | 59.5 nM |
| AUGAGAGCAGGAUAUGCAGGUGUGCCGGAAGAAAGAAGAAGACAUGAGGAUCACCCAUGUAGAAGGGCUAGCCC [Bibidi] | 18.5 nM | 30 nM |
| AUGUAGGUAGGAUAUACAUGGAUAUACAUUCAUGUGGACCUACAUGAGGAUCACCCAUGUAGAAGGACCUAAAA [Mat - Same state - Mayanna Mod - D128] | 39.4 nM | 45 nM |
| CAAAGGUGAGGAUAUACAAAAAAAUGACGAAAGUCAUCCACACAUGAGGAUCACCCAUGUAGAAGGCACCACAA [E2 64% 6] | 29.2 nM | 30 nM |
| CAAAGGUGAGGAUAUACAUAACUAUGACGAAAGUCAUAAAAACAUGAGGAUCACCCAUGUAGAAGGCACCACAA [E2 64% 1] | 31.3 nM | 38.1 nM |
| CAAAGGUGAGGAUAUGCAUAACUAUGACGAAAGUCAUAAACACAUGAGGAUCACCCAUGUAGAAGGCACCACAA [e2-2] | 18.8 nM | 37.2 nM |
| CAAAGUGGAGGAUAUACAUGAGGAUCACCCAUGUAAGGACAAUAAAUAAGAAGAAGAAGUAGAAGGCCACUCAA [e3-2] | 40.2 nM | 28.9 nM |
| CACAAGUCAGGAUAUUCGACAAGUAAAUCAGUAGAUCAAAAGAAGAAGGGACAUGAGGAUCACCCAUGUAAAUA [JR_Exc004_Sub402] | 22.3 nM | 39.1 nM |
| CACGGACAUGAGGAUCACCCAUGUGAGGAUAUGCUCUACGAACGUUUUCCCACGAGAAGCAGAAGGCACAUUUC [try 2] | 90.8 nM | 42.6 nM |
| CACGUACAUGAGGAUCACCCAUGUUAGGAUAUGCCGGGUAAGAGAAAACAAAAAAUCAGCAGAAGGGACGAAAC [Bilbo Confounded 17 - Jieux - Exclusion 1] | 31.8 nM | 34.1 nM |
| CAGUACUGAGGAUAUACAUGAGGAUCACCCAUGUAUCCAAGCUAGGAAACUAGCAAAUGUAGAAGGCAGUACUG [Ex3: 821] | 319 nM | 37.5 nM |
| CAGUACUGAGGAUAUACAUGAGGAUCACCCAUGUAUCCUAGCUAGGAAACUAGCAAAAGUAGAAGGCAGUACUG [Ex3: 819] | 118 nM | 13.5 nM |
